Assay results reported in the DeepSol protein solubility set.

Experiment: soluble on expression in E. coli; label from the status in PepcDB or PDB records

| Sequence | soluble on expression in E. coli |
| --- | --- |
| MGSDKIHHHHHHGADVETPSVSISVSPENPKVGEEVTVTINTDAQYLTLFTGDEGKNFERSRIKAIMEHDWDSFYEECYRVSYAKNGEKTLFYKYFKDYQSIEDVKKDFEFFGAIDNIQLVPYKKGDFPEALMEMSYIGTNQLKFTVTDRRIPSGIRMKPNIHIFGGLANQPGNTIIESRFVACDADRAIRKYSNDAWVAAYFGLHTEQLEDFQGYSAGYKYYTFQDERSYGAFQTNDPLSRRPTEGFYKLGDMYNRDTYLQPFLDHGEKIILRQVDMYVNGRSTFVAADDSPYKYDLDGDGVLESYECELDPATGLPVHEADYTKYKGFQGDVYLSFIEMGTDEYEPWNTGVSLGSVYTTGGIQKTYKYIYTGAGDFTITAVATNVGDKDYKGIDYSEERSNSLDDYSHKRALSSVKVSVKP | not soluble |
| MIRFARPKPIIDSVSYNLLQKCYASGTPKGKSKLKTGQSLKRNKLTIKKGGGNGGGRGGDEVDKGKGRISDQCINAPCPVRYLRPKEREREARREKLGLISKARQKEIDFQKKGGSFTMGVTTAPMRIGTPGLDYISLGIFTEDELPKYKVTVEDGIRLAKEYSRVLMREHRARRVAEISLMKMRNAAVEALPENLKKAALVRDLTPFPVSRGTVRLLHLLKGIWRGL | soluble |
| GPGSMVLSSPVITLRRMVHFSSTPTSLHSRSSTSPLDALVDEVSSFIPATFTSIPQISRQLPPELMERVCDPVCGGLRSLLSRYAERFESKMIGQVHVVRSRLRQRESAAPCRRANAGAEVGYSFAVPSSPSGNAAAAASKSNSVDVQAVFTELQQLFPSYLVPVKALWTTVPEAEEQQVRARVLDALRSPQHRAWLTFHEHPAHCASHSTSADEAELTHVLEHGYVQLRLNPAAGDDRAAAPMPQSPNTRMAGHEVQPYEWYRVARVLPTTATELLFSGELQEQATLLLPPGRDVWHVLLSAPALFELRYAAPTTVDSGQQARVPTLSAEGSSLAPVCVKYDATPPPSLCASVYVRFRLEERFVPPDMAGAREESILRELETLTAERAASACGLSSRQRRRKRKLQRQLAYLRNPTPYFDERVLAQHLFDLLPLRDGVHQSALLGSLPQPAVQAFPQNVTELLQARNDLFQLSDVRHGILVRRADAPKVAQRSIESVTGEEILLHIFSSYSLRSDPQEGTTISRSLPRLPRLVRERLFTMQDIIAEVLLLYPDKVEVLADRSPSISSLSLSSSPHTSEADERALRELRTVRGRRDFLVPFRFVGEWQAKLTEKYTKQQTKDAVKSMRARQRSESSHRRPARY | not soluble |
| MKSFVLFALFSVAAAQFGGYGRGRGGPGGPGGFEGGPAGAGGFQGNGAGELTYEAKGRLICGLTGVDKVRVVLWDRFRGRENIIYDETNTDVVGNFRLRATRNGFDGNLIQPFLTIYHDCDDASTPGLRKMTVQLPPQYTNQGSLALKSFDIGTWNLETSFAGEELEIQNGGLGGRPIGGSSFGQGNRGQFGGNREIFAHGGRSDFGDSSISV | not soluble |
| MGTAAERWERAQMFFDAKDYAVAARILDGLVDEVPEQTGPRLLLARSYYHSAQLGRAEAELRILVERDPVEHYARLMLGRTLQRQGRDDEADSQLRIASALAGLEHHHHHH | not soluble |
| MAHHHHHHMPPPPPAPPPPPPPPPPPKATEGNSSSTVGGAASALFAEIRQGGDNITSRLRHVTDDQKAYKQNIQHGAVDFSDLDAKKAEAEAKRQQKQKQPETTAAEEPVTRLEGDKRWVVKHHKGTPSEPCKVTLEDVNMRHAVHIHGCDNTFVEVKGKVNTVSVVSCNKAQVILESVVSALEVLKSDSVDVTVRRFVPTAMVEKSTSVNLFLMDVEEAPNTEIVTACSSAVNVNFPTVEDPTDILERPLPEQFVSRIVRDNRGKYKIETKPNEVA | soluble |
| MGSDKIHHHHHHMRLTIHHTTRYRFDEPVSFGLQQLRKTPKTNTNQQVVEWQTRIIGGQKEVSFDDHHHNVTELISFEPGVTELELVSEGVVELTDTHGVVGRHRGPSPLWLYARPTVLTEARAGVRELIRDLDDSNPVDMLHQLSARIREAITYQIGVSELGWSAEDAIQSAHGVCQDHAHVFIACARKLGLPARYVSGYLMLDDRTTQDAMHAWAEAHVEGLGWVGFDVSNGISPDARYVRVATGLDYSDAAPVSGTRIGGAGEALDVQIEVAQQ | not soluble |
| MSLRKFKSILLIDDDETSNFISEVIIKKLGITETISTVKNGVEALNFVSNNCTINCAPTCPQIIFLDLHMPVMDGFDFLKELKKQMPLYTQKFKIFVLSSSNNPADITKTKDFDVEGYIVKPLSQEKISMLLEDVAEGHHHHHH | not soluble |
| SNAMRVLTGLQPSGDLHIGNYFGAIKQMVDAQEKSQMFMFIANYHAMTSSQDGEKLKQNSLKAAAAFLSLGIDPQKSVFWLQSDVKEVMELYWILSQFTPMGLLERAHSYKDKVAKGLSASHGLFSYPVLMAADILLFDTRIVPVGKDQIQHVEIARDIALKVNNEWGEIFTLPEARVNEEVAVVVGTDGAKMSKSYQNTIDIFSSEKTLKKQISSIVTDSTALEDPKDHENCNIFKIAKLFLDESGQKELQIRYEKGGEGYGHFKIYLNELVNAYFKEAREKYNELLEKPSHLKEILDFGATKARKIAQEKMQKIYEKIGL | soluble |
| MMVYIMNAFDIKSTKMDVLSISLHTSDLFDLEDVLVKLGKKFQESGVVPFVLDVQEFDYPESLDLAALVSLFSRHGMQILGLKHSNERWAAAAMKYHLLFCLSHSENVKELGQVEVQKTEDGQKARKTVLITSPVRTGQQVYAEDGDLIVTGAVSQGAELIADGNIHIYAPMRGRALAGAKGDTSARIFIHSMQAELVSVAGIYRNFEQDLPNHLHKQPVQILLQDNRLVISAIGSE | not soluble |
| MGSDKIHHHHHHLGILDAPAVQPSKVGLEALYAKTSASLGLFHTSLAGRHFAPCKILVVGDSISEGAGATLNIRNRWQDRLKENLRSRFPTDGSPGTTLHYVPAMNVVNMPGDMAVRSAGVTTGTSFGFGARHAQLTAAGHTVTFTVTGTSAKVVYPKSSGGGSFTWQVDGGTVSSAVSQSAGSLTDGFTTDIPLGASGSHTVVIAWVSGGSVFIDGLLVYNGDETKGIHVIDGAHSGWGAQNFQLNGIQFYQGSLTTMLQPSLVIIALGINDFAFGSLSIANYKIHMQSNIDRYRGAIPTKPPSILLVAMHRRSPVSAVATWAEYVQAMKELAQANDGVAFLDLSARLPQVSGDTRGLYADEVHPANLGHSAIADNVTSFIVPR | not soluble |
| MNSPLAPVGVFDSGVGGLTVARAIIDQLPDEDIVYVGDTGNGPYGPLTIPEIRAHALAIGDDLVGRGVKALVIACNSASSACLRDARERYQVPVVEVILPAVRRAVAATRNGRIGVIGTRATITSHAYQDAFAAARDTEITAVACPRFVDFVERGVTSGRQVLGLAQGYLEPLQRAEVDTLVLGCTHYPLLSGLIQLAMGENVTLVSSAEETAKEVVRVLTEIDLLRPHDAPPATRIFEATGDPEAFTKLAARFLGPVLGGVQPVHPSRIH | not soluble |
| MSLKVGERHYHTIWLNEDGRSVDIIDQRWLPHEFRVVTLKTVADVADAIRDMWVRGAPLIGVTAAYGVAIAMAKDPSDAHLDAVWEELNETRPTAINLRWALNAMREYLRPLPEAERADAAYKRAAEIAEEDVELNRAIGANGLDVIREIASKKKPGEPVRILTHCNAGWLATVDYGTATAPIYMAVEEGIPVHVYVDETRPRNQGAYLTAWEMNGHGVPHTLIVDNAGGHLMQHGDIDMVIVGTDRTTANGDVCNKIGTYLKALAARDNDVPFYVALPSPTIDWTVQDGVKEIPIEERTADEVSFVQGRAADGSIASVRISPEGSPAANPAFDVTPARLITGLITERGIATPSPEGLKALFPERSEGHHHHHH | soluble |
| MGHHHHHHSHMVYPEEPFWVLPTVTGFYEDRDYRVNVVEALQEFWQMKQSRGAELKNGALVIYESIPSNSQPYICFVTLPGGSCFGSFQNCPTKAEARRSSAKIALMNSVFNEHPSRRISDEFIQKAVQDARTSFKGTSQINEGTESGIGAFRFMLEANKGRTMLEFQELMTVFQLLHWNGSLKAMRERHCSRQEVVAHYSNRSLDDEMRSQMALDWIAREHDNPGVIRRELVLAERELETFRMAGRELRFPKEKKDILMIAHNQLGGSALNSATIDD | not soluble |
| GSHMKNSVSVDLPGSMKVLVSKSSNADGKYDLIATVDALELSGTSDKNNGSGVLEGVKADASKVKLTISDDLGQTTLEVFKSDGSTLVSKKVTSKDKSSTEEKFNEKGELSEKKITRADKSSTEEKFNEKGELSEKKITRADKSSTEEKFNEKGELSEKKITRADKSSTEEKFNEKGEVSEKIITRADGTRLEYTGIKSDGSGKAKEVLKGYVLEGTLTAEKTTLVVKEGTVTLSKNISKSGEVSVELNDTDSSAATKKTAAWNSGTSTLTITVNSKKTKDLVFTSSNTITVQQYDSNGTSLEGSAVEITKLDEIKNALK | soluble |
| MAAPLGGMFSGQPPGPPQAPPGLPGQASLLQAAPGAPRPSSSTLVDELESSFEACFASLVSQDYVNGTDQEEIRTGVDQCIQKFLDIARQTECFFLQKRLQLSVQKPEQVIKEDVSELRNELQRKDALVQKHLTKLRHWQQVLEDINVQHKKPADIPQGSLAYLEQASANIPAPLKPTLEHHHHHH | not soluble |
| MGSDKIHHHHHHMATGTLPDAGQILNSLINSILLVDDDLAVHFANPAAQQLLAQSSRKLFGTPLPELLSYFSLNIGLMQESLQAGQGFTDNEVTLVIDGRSHILSLTAQRLPEGFILLEMAPMDNQRRLSQEQLQHAQQVAARDLVRGLAHEIKNPLGGLRGAAQLLSKALPDPALTEYTKVIIEQADRLRNLVDRLLGPQHPGMHVTESIHKVAERVVKLVSMELPDNVKLIRDYDPSLPELPHDPDQIEQVLLNIVRNALQALGPEGGEIILRTRTAFQLTLHGVRYRLAARIDVEDNGPGIPPHLQDTLFYPMVSGREGGTGLGLSIARSLIDQHSGKIEFTSWPGHTEFSVYLPIRK | not soluble |
| MPNKNTQEYWEERGRKAIENELKRDKTKAEEIERILNMMIKRIEKEINAFIVKYGDFAGVTLQEAQKIIDEFDVKAFQEEAKRLVENKDFSDRANEELKKYNTKMYVSREQMLKIQIEFLIAYATAQTELSMREYFESTAYRVFSDQAGILGEGVQVAKEVIDTIVDTQFHGVVWSERLWTNTEAMKQEVEEIIANVVIRGRHPNEYVKDMRKHLNKFEGTARQKTAAIKSLLYTESARVHAQSSIDSMKEISPEGYYMYIAKIDNRTTKVCKGLNGEIFKVKDAKIGVNFYPMHINCRSDCALLPKSMWPKKPSKKRKTKYFGGKVKSGD | not soluble |
| MGSDKIHHHHHHMRPTQKGDYLNPMSDLFQDYSEAAARSGAYDEMFAQGHVARRSYGQVSGALRELSLADVTARADSMARTFLDRGVTFDYAGEERPFPLDIVPRVIPADEWNVLERGVAQRVKALEAFLNDVYGRMAVVTDGVIPRQLVTTSAHFHRAVHGFEPSGGVRVHVSGIDVVRDAAGTFRVLEDNVRVPSGVSYVLENRRAMAKGLPEAFGQQHIRPVEEYPRRLLSALRKTAPAGVDDPTVVVLTPGVFNSAYFEHTLLAGLMGVELVEGRDLICRGNRVYMRTTAGEQRVDVIYKRIDDDFLDPLQFRSDSMLGCPGLVNAARAGGVTIANAVGNGVADDKLVYSYVPDLIRYYLHEEPIIANVDTFRLEEKEAREHVLDRLDELVVKPVDGSGGKGLVIGPDATKDELDALRKRVIADPRGWIAQPVLQLSTVPTLSGDKFGPRHVDLRPFAVNDGDDVWVLPGGLTRVALKEGSLIVNSSQGGGSKDTWVLADSPQLPAEIIPRQSVTVREQVSVWPVESNWRDRQTEQQQ | not soluble |
